In assay [1] the target is catalytically inactive mouse neutrophil elastase (Ser195Ala) with a C-terminal cysteine tag, fluorescently labelled (mouse). Description: MST; AAT serially diluted (titrated), 5 nM fluorescently labelled inactive NE, in 7.5% plasma pool from individuals with high FEV1 (>=80%, n = 8); storage buffer (20 mM Na2HPO4, 300 mM NaCl pH 7.4) with Tween 20, 22 °C, 2 h incubation; global fit of four measurements.

Assay [2] shares this target. The assay can be described thus: MST; AAT serially diluted (titrated), 5 nM fluorescently labelled inactive NE, in 7.5% plasma pool from individuals with low FEV1 (<=50%, n = 12); storage buffer (20 mM Na2HPO4, 300 mM NaCl pH 7.4) with Tween 20, 22 °C, 2 h incubation; global fit of four measurements.

The Kd is the constant that tells how readily two partners part at equilibrium. A higher Kd goes with lower affinity. As for “recombinant Z-variant alpha-1-antitrypsin (Glu342Lys) with three stabilizing mutations (Met374Ile, Ser381Ala, Lys387Arg) on the M1(Ala213) background (from UniProt P01009 25-418) (natural protein)”, the equilibrium dissociation constant (Kd) is 500 nM in assay [1] and 1300 nM in assay [2].

Source of the values: publication PMC5064372.
